± gives the standard deviation of the averaged measurements.
Assay: total protein half-life in vivo (active degradation + dilution); higher = more stable protein
[1] = E. coli NCM3722 delta-clpP, growth: N-lim chemostat, doubling time 6 h
[2] = E. coli NCM3722 delta-hslV, growth: N-lim chemostat, doubling time 6 h
[3] = E. coli NCM3722 delta-smpB, growth: N-lim chemostat, doubling time 6 h
[4] = wild type E. coli NCM3722, growth: C-lim chemostat, doubling time 6 h
[5] = wild type E. coli NCM3722, growth: C-lim chemostat, doubling time 12 h
[6] = wild type E. coli NCM3722, growth: N-lim chemostat, doubling time 6 h
[7] = wild type E. coli NCM3722, growth: N-lim chemostat, doubling time 12 h
[8] = wild type E. coli NCM3722, growth: P-lim chemostat, doubling time 6 h
[9] = wild type E. coli NCM3722, growth: P-lim chemostat, doubling time 12 h

Row | Sequence | total protein half-life in vivo (E. coli NCM3722 delta-clpP delta-lon delta-hslV, growth: N-lim chemostat, doubling time 6 h) | total protein half-life in vivo [1] | total protein half-life in vivo [2] | total protein half-life in vivo [3] | total protein half-life in vivo [4] | total protein half-life in vivo [5] | total protein half-life in vivo [6] | total protein half-life in vivo [7] | total protein half-life in vivo [8] | total protein half-life in vivo [9] | total protein half-life in vivo (E. coli NCM3722 delta-lon, growth: N-lim chemostat, doubling time 6 h) | total protein half-life in vivo (wild type E. coli NCM3722, growth: C-lim chemostat, doubling time 3 h)
1 | MACGEFSLIARYFDRVRSSRLDVELGIGDDCALLNIPEKQTLAISTDTLVAGNHFLPDIDPADLAYKALAVNLSDLAAMGADPAWLTLALTLPDVDEAWLESFSDSLFDLLNYYDMQLIGGDTTRGPLSMTLGIHGFVPMGRALTRSGAKPGDWIYVTGTPGDSAAGLAILQNRLQVADAKDADYLIKRHLRPSPRILQGQALRDLANSAIDLSDGLISDLGHIVKASDCGARIDLALLPFSDALSRHVEPEQALRWALSGGEDYELCFTVPELNRGALDVALGHLGVPFTCIGQMTADIEGLCFIRDGEPVTLDWKGYDHFATP [P0AGG0] | 5.68 ± 0.31 h | 4.97 ± 0.5 h | 5.14 ± 1.4 h | 3.99 ± 0.23 h | 5.41 ± 0.077 h | 10.2 ± 1 h | 4.17 ± 0.23 h | 7.02 ± 0.95 h | 5.41 ± 0.33 h | 12.1 ± 0.31 h | – | –
2 | MTKVLLSHPPRPASHNSSRAMVWVRKNLFSSWSNSLLTIGCIWLMWELIPPLLNWAFLQANWVGSTRADCTKAGACWVFIHERFGQFMYGLYPHDQRWRINLALLIGLVSIAPMFWKILPHRGRYIAAWAVIYPLIVWWLMYGGFFALERVETRQWGGLTLTLIIASVGIAGALPWGILLALGRRSHMPIVRILSVIFIEFWRGVPLITVLFMSSVMLPLFMAEGTSIDKLIRALVGVILFQSAYVAEVVRGGLQALPKGQYEAAESLALGYWKTQGLVILPQALKLVIPGLVNTIIALFKDTSLVIIIGLFDLFSSVQQATVDPAWLGMSTEGYVFAALIYWIFCFSMSRYSQYLEKRFNTGRTPH | – | – | – | – | – | – | 4.17 h | – | – | – | – | –
3 | MTVNSSRNALKRRTWALFMFFFLPGLLMASWATRTPAIRDILSVSIAEMGGVLFGLSIGSMSGILCSAWLVKRFGTRNVILVTMSCALIGMMILSLALWLTSPLLFAVGLGVFGASFGSAEVAINVEGAAVEREMNKTVLPMMHGFYSLGTLAGAGVGMALTAFGVPATVHILLAALVGIAPIYIAIQAIPDGTGKNAADGTQHGEKGVPFYRDIQLLLIGVVVLAMAFAEGSANDWLPLLMVDGHGFSPTSGSLIYAGFTLGMTVGRFTGGWFIDRYSRVAVVRASALMGALGIGLIIFVDSAWVAGVSVVLWGLGASLGFPLTISAASDTGPDAPTRVSVVATTGYLAFLVGPPLLGYLGEHYGLRSAMLVVLALVILAAIVAKAVAKPDTKTQTAMENS | – | 4.21 h | – | – | – | – | – | – | – | 7.65 h | – | –
4 | MQPFGVLDRYIGKTIFTTIMMTLFMLVSLSGIIKFVDQLKKAGQGSYDALGAGMYTLLSVPKDVQIFFPMAALLGALLGLGMLAQRSELVVMQASGFTRMQVALSVMKTAIPLVLLTMAIGEWVAPQGEQMARNYRAQAMYGGSLLSTQQGLWAKDGNNFVYIERVKGDEELGGISIYAFNENRRLQSVRYAATAKFDPEHKVWRLSQVDESDLTNPKQITGSQTVSGTWKTNLTPDKLGVVALDPDALSISGLHNYVKYLKSSGQDAGRYQLNMWSKIFQPLSVAVMMLMALSFIFGPLRSVPMGVRVVTGISFGFVFYVLDQIFGPLTLVYGIPPIIGALLPSASFFLISLWLLMRKS [P0ADC6] | – | 6.53 ± 0.4 h | 6.81 ± 0.8 h | 6.08 ± 0.48 h | 6.69 ± 0.65 h | 12.3 ± 0.43 h | 6.06 ± 0.099 h | 12.9 ± 0.5 h | 6.22 ± 0.49 h | 13.5 ± 0.88 h | 6.01 ± 0.47 h | –
5 | MEQPVIPVRNIYYMLTYAWGYLQEIKQANLEAIPGNNLLDILGYVLNKGVLQLSRRGLELDYNPNTEIIPGIKGRIEFAKTIRGFHLNHGKTVSTFDMLNEDTLANRIIKSTLAILIKHEKLNSTIRDEARSLYRKLPGISTLHLTPQHFSYLNGGKNTRYYKFVISVCKFIVNNSIPGQNKGHYRFYDFERNEKEMSLLYQKFLYEFCRRELTSANTTRSYLKWDASSISDQSLNLLPRMETDITIRSSEKILIVDAKYYKSIFSRRMGTEKFHSQNLYQLMNYLWSLKPENGENIGGLLIYPHVDTAVKHRYKINGFDIGLCTVNLGQEWPCIHQELLDIFDEYLK | – | – | – | – | 5.31 h | > 16 h | – | – | 5.09 ± 0.42 h | 7.9 ± 0.14 h | – | 3.05 ± 0.89 h
